Source: patent US20190071480A1 (Biogen, published 2019)

T1: extracellular domain of activin receptor type IIB (ActRIIBecd), biotinylated (Homo sapiens (Human), UniProt Q13705 27-117, amino-biotinylated with amine-PEG3-Biotin)
T1 construct: immobilised on a streptavidin-coated sensor chip; also called biotinylated ActRIIBecd; extracellular domain of ActRIIB
T1 sequence: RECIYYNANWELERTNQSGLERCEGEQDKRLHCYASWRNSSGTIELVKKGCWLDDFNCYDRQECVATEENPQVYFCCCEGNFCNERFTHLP


Experiments:
[1] = target: T1, extracellular domain of activin …; test: Mean KD column of Table 5; method not restated (BIAcore as Example 5)
Protocol: (§1) Biosensor experiments. In one embodiment, experiments were performed on a BIAcore™ T100/T200 instrument (Pharmacia Biosensor AB) in the multichannel mode (serial flow path involving flow cells 1+2+3+4). Flow rate was 10 μl/min; temperature was 25° C.; and data were recorded at 2.5 points/s. All four segments of a sensor chip CMS were coated with streptavidin (Sigma) to a density of 2000 pg/mm² (2000 resonance units) by the aminocoupling procedure. ActRIIBecd (10 mg) and amine-PEG3-Biotin (10 mg, Pierce, Rockford, Ill.) were dissolved in 200 μl H₂O and 10 mg NaCNBH₃ was added to prepare biotinylated ActRIIBecd. The reaction mixture was heated at 70° C. for 24 h, after that a further 10 mg NaCNBH₃ was added and the reaction was heated at 70° C. for another 24 h. After cooling to room temperature, the mixture was desalted with the spin column (3,000 molecular weight cut off (MWCO)). Biotinylated ActRIIBecd was collected, freeze-dried and used for streptavidin (SA) chip preparation. Amino-biotinylated ActRIIBecd was then immobilized independently on flow cells 2-4 for 10 minutes at a flow rate of 5 μL/min and a concentration of 20 μM in 10 mM sodium acetate, pH 4.0, at a density of 50-250 resonance units (RU). The stored polypeptides were dissolved in glycine buffer (2.5 g of glycine, 0.5 g of sucrose, 370 mg of L-glutamate, 10 mg of sodium chloride, and 10 mg of Tween 80 in 100 mL water, pH 4.5) to prepare 10 mg/mL solution and then diluted with previous glycine buffer to prepare analytes with various concentration. Sensograms were recorded during flow of the analyte (the ActRIIBecd-associated polypeptides (i.e., domains) as previously described) first through flow cell 1 (control) then through flow cell 2 (biotinylated ActRIIBecd). The sensogram obtained for flow cell 1 was subtracted from the sensogram obtained for flow cell 2. The sensograms obtained at 1.11, 3.33, 10, 30, and 90 nM analyte were evaluated for equilibrium binding, association rate, and dissociation rate by using the programs supplied with the instrument (BIA evaluation 2.1; Software Handbook. 1995; Pharmacia Biosensor AB).

[2] = target: T1, extracellular domain of activin …; test: BIAcore SPR as Example 5 (method not restated); SD ±1.55 nM
Protocol: as §1, with “The sensogram obtained for flow cell 1 was subtracted from the sensogram obtained for flow cell 2.” left out

[3] = target: T1, extracellular domain of activin …; test: Mean KD column of Table 5; method not restated (BIAcore as Example 5); species also listed in Table 4
Protocol: as §1

[4] = target: T1, extracellular domain of activin …; test: BIAcore SPR as Example 5 (method not restated); SD ±1.67 nM
Protocol: as §1, with “Biotinylated ActRIIBecd was collected, freeze-dried and used for streptavidin (SA) chip preparation. Amino-biotinylated ActRIIBecd was then immobilized independently on flow cells 2-4 for 10 minutes at a flow rate of 5 μL/min and a concentration of 20 μM in 10 mM sodium acetate, pH 4.0, at a density of 50-250 resonance units (RU). The stored polypeptides were dissolved in glycine buffer (2.5 g of glycine, 0.5 g of sucrose, 370 mg of L-glutamate, 10 mg of sodium chloride, and 10 mg of Tween 80 in 100 mL water, pH 4.5) to prepare 10 mg/mL solution and then diluted with previous glycine buffer to prepare analytes with various concentration.” left out, “The sensogram obtained for flow cell 1 was subtracted from the sensogram obtained for flow cell 2.” left out

[5] = target: T1, extracellular domain of activin …; test: BIAcore SPR as Example 5 (method not restated); SD ±2.15 nM
Protocol: as §1, with “Biotinylated ActRIIBecd was collected, freeze-dried and used for streptavidin (SA) chip preparation. Amino-biotinylated ActRIIBecd was then immobilized independently on flow cells 2-4 for 10 minutes at a flow rate of 5 μL/min and a concentration of 20 μM in 10 mM sodium acetate, pH 4.0, at a density of 50-250 resonance units (RU). The stored polypeptides were dissolved in glycine buffer (2.5 g of glycine, 0.5 g of sucrose, 370 mg of L-glutamate, 10 mg of sodium chloride, and 10 mg of Tween 80 in 100 mL water, pH 4.5) to prepare 10 mg/mL solution and then diluted with previous glycine buffer to prepare analytes with various concentration.” left out, “The sensogram obtained for flow cell 1 was subtracted from the sensogram obtained for flow cell 2.” left out

Binder	Kd [1]	further results
SEQ ID NO: 268, cysteine pairs C23-C27^a (designed binder, disulfides C23-C27 (intra)) VDFSDVGWNDWIVAPPGYHAFYCHGECPFPLADHLNSTNHAIVQTLVNSVAQAKHKQRKRLKSSCKRHPLYNSKIPKACCVPTELSAISMLYLDENEKVVLKNYQDMVVEGCGCR	8.41 nM	
SEQ ID NO: 308, cysteine pairs C59-C59^b, C8-C41^b, C9-C43^b, C88-C92^a (designed binder, disulfides C59-C59 (inter), C8-C41 (inter), C9-C43 (inter), C88-C92 (intra), homodimer by intermolecular disulfide) NSKDPKACCVPTELSAPSPLYLDENEKPVLKNYQDMVVHGCGCRGQAKRKGYKRLKSSCKRHPLYVDFKDVGWNDHAVAPPGYHAFYCHGECPFPLADHLNSDNHAIVQTKVNSV		Kd [2]: 6.73 nM; Kd [3]: 6.73 nM
SEQ ID NO: 308, cysteine pairs C8-C43^a, C9-C41^a, C88-C92^a (designed binder, disulfides C8-C43 (intra), C9-C41 (intra), C88-C92 (intra)) NSKDPKACCVPTELSAPSPLYLDENEKPVLKNYQDMVVHGCGCRGQAKRKGYKRLKSSCKRHPLYVDFKDVGWNDHAVAPPGYHAFYCHGECPFPLADHLNSDNHAIVQTKVNSV	10.9 nM	
SEQ ID NO: 260, cysteine pairs C15-C15^b, C80-C114^a, C79-C112^a, C44-C48^a (designed binder, disulfides C15-C15 (inter), C80-C114 (intra), C79-C112 (intra), C44-C48 (intra), homodimer by intermolecular disulfide) AQAKHKQRKRLKSSCKRHPLYVDFSDVGWNDWIVAPPGYHAFYCHGECPFPLADHLNSTNHAIVQTLVNSVNSKIPKACCVPTELSAISMLYLDENEKVVLKNYQDMVVEGCGCR		Kd [4]: 7.45 nM; Kd [3]: 7.45 nM
SEQ ID NO: 260, cysteine pairs C44-C48^a (designed binder, disulfides C44-C48 (intra)) AQAKHKQRKRLKSSCKRHPLYVDFSDVGWNDWIVAPPGYHAFYCHGECPFPLADHLNSTNHAIVQTLVNSVNSKIPKACCVPTELSAISMLYLDENEKVVLKNYQDMVVEGCGCR	8.04 nM	
SEQ ID NO: 324, cysteine pairs C80-C114^a, C79-C112^a, C44-C48^a (designed binder, disulfides C80-C114 (intra), C79-C112 (intra), C44-C48 (intra)) AQAKHKQRKRLKSSCKRHPLYVDFKDVGWNDHAVAPPGYHAFYCHGECPFPLADHLNSDNHAIVQTKVNSVNSKIPKACCVPTELSAISMLYLDENEKVVLKNYQDMVVEGCGCR		Kd [5]: 7.22 nM; Kd [3]: 7.22 nM
SEQ ID NO: 324, cysteine pairs C44-C48^a (designed binder, disulfides C44-C48 (intra)) AQAKHKQRKRLKSSCKRHPLYVDFKDVGWNDHAVAPPGYHAFYCHGECPFPLADHLNSDNHAIVQTKVNSVNSKIPKACCVPTELSAISMLYLDENEKVVLKNYQDMVVEGCGCR	8.75 nM	

Continued by falling Kd [1], values first:

Kd [1]	Binder	further results
7.8 nM	SEQ ID NO: 308, cysteine pairs C88-C92^a (designed binder, disulfides C88-C92 (intra)) NSKDPKACCVPTELSAPSPLYLDENEKPVLKNYQDMVVHGCGCRGQAKRKGYKRLKSSCKRHPLYVDFKDVGWNDHAVAPPGYHAFYCHGECPFPLADHLNSDNHAIVQTKVNSV	
6.17 nM	SEQ ID NO: 260, cysteine pairs C79-C114^a, C80-C112^a, C44-C48^a (designed binder, disulfides C79-C114 (intra), C80-C112 (intra), C44-C48 (intra)) AQAKHKQRKRLKSSCKRHPLYVDFSDVGWNDWIVAPPGYHAFYCHGECPFPLADHLNSTNHAIVQTLVNSVNSKIPKACCVPTELSAISMLYLDENEKVVLKNYQDMVVEGCGCR	
6.05 nM	SEQ ID NO: 260, cysteine pairs C79-C114^b, C80-C112^b, C44-C48^a (designed binder, disulfides C79-C114 (inter), C80-C112 (inter), C44-C48 (intra), homodimer by intermolecular disulfide) AQAKHKQRKRLKSSCKRHPLYVDFSDVGWNDWIVAPPGYHAFYCHGECPFPLADHLNSTNHAIVQTLVNSVNSKIPKACCVPTELSAISMLYLDENEKVVLKNYQDMVVEGCGCR	
4.04 nM	SEQ ID NO: 260, cysteine pairs C15-C15^b, C80-C114^b, C79-C112^b, C44-C48^a (designed binder, disulfides C15-C15 (inter), C80-C114 (inter), C79-C112 (inter), C44-C48 (intra), homodimer by intermolecular disulfide) AQAKHKQRKRLKSSCKRHPLYVDFSDVGWNDWIVAPPGYHAFYCHGECPFPLADHLNSTNHAIVQTLVNSVNSKIPKACCVPTELSAISMLYLDENEKVVLKNYQDMVVEGCGCR	
4.03 nM	SEQ ID NO: 260, cysteine pairs C15-C15^b, C79-C114^b, C80-C112^b, C44-C48^a (designed binder, disulfides C15-C15 (inter), C79-C114 (inter), C80-C112 (inter), C44-C48 (intra), homodimer by intermolecular disulfide) AQAKHKQRKRLKSSCKRHPLYVDFSDVGWNDWIVAPPGYHAFYCHGECPFPLADHLNSTNHAIVQTLVNSVNSKIPKACCVPTELSAISMLYLDENEKVVLKNYQDMVVEGCGCR	
